B1: p115-PH (PH domain of p115RhoGEF) (domain or fragment)
chain: KLVHEGPLTWRVTKDKAVEVHVLLLDDLLLLLQRQDERLLLKSHSRTLTPTPDGKTMLRPVLRLTSAMTREVATDHKAFYVLFTWDQEAQIYELVAQTVSERKNWCALITETAG
B2: PH domain from LARG (domain or fragment)
chain: KMIHEGPLVWKVNRDKTIDLYTLLLEDILVLLQKQDDRLVLRCHSKILASTADSKHTFSPVIKLSTVLVRQVATDNKALFVISMSDNGAQIYELVAQTVSEKTVWQDLICRMAA
B3: PRG-PH (non-fluorescent PH domain of PDZRhoGEF) (domain or fragment)
chain: VKQTENRHRLEGYQKRLDATALERASNPLAAEFKSLDLTTRKMIHEGPLTWRISKDKTLDLHVLLLEDLLVLLQKQDEKLLLKCHSKTAVGSSDSKQTFSPVLKLNAVLIRSVATDKRAFFIICTSKLGPPQIYELVALTSSDKNTWMELLEEAVRNATRHP
B4: PH domain from p190RhoGEF (domain or fragment)
chain: TLLYDGLVYWKTATGRFKDILALLLTDVLLFLQEKDQKYIFAAVDQKPSVISLQKLIAREVANEERGMFLISASSAGPEMYEIHTNSKEERNNWMRRIQQAVE

Biological target: YFP-RhoA·GTPγS (UniProt P61586 1-193)
Test: FRET; competition with CFP-PRG-PH

Chain of YFP-RhoA·GTPγS (P61586 whole entry): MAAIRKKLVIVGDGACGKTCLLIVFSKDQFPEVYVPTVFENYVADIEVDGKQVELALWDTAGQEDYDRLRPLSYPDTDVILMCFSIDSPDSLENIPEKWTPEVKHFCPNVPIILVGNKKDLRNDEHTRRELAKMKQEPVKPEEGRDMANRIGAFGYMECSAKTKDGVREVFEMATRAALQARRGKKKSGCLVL

IC50 | Binder
170 µM | B1
10.5 µM | B2
3.4 µM | B3
7.2 µM | B4

— PMC5988292 (2018)
